Measurements from the nanobody polyreactivity screen of Harvey et al. (2022).

experiment: yeast display, Sf9 membrane polyspecificity reagent, FACS + sequencing; frameworks hold sequencing errors
Procedure, shortened: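 In a synthetic yeast display library (Saccharomyces cerevisiae BJ5465), nanobody expression was induced with galactose for 36–48 hours. FACS gates were set low and high (top ~1%) using anti-HA fluorescence for expression and streptavidin fluorescence for binding of the Sf9 membrane reagent. Each polyreactivity label is drawn from the gate of origin.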

Sequence	polyreactivity (PSR sort gate)
QVQLVESGGGLVQAGGSLRLSCAASGSILVDNAMASYRQAPGKERELVARITGSGGSTYYADSVKGRFTISRDNAKNSVYLQMHILKPEDTAVYYCAARRVNAGWTYGLRGNYWGQGTQVTVSS	low polyreactivity
QVQLVESGGGLVQAGGSLRLSCAASGSILVHYSMGWYRQAPGKERELVAAISRGGSTNYADSVKGRFTISRDNAKNTVYLQMNSLKPEDTAVYYCAARRPWGEYYWGQGTQVTVSS	low polyreactivity
QVQLVESGGGLVQAGGSLRLSCAASGSILVSYAMARYSQAPGKERELVAAISGNSDSTYYADSVKGRFTISRDNAKNTVYLQMNSLKPEDTAVYYCAKEGGNGYDYWGQGTQVTVSS	low polyreactivity
QVQLVESGGGLVQAGGSLRLSCAASGSILVSYAMGWYRQAPGKERELVAAITSGGRTKYADSVKGRFTISRDNAKNTVYLQMNSLKPEDTAVYYCAADDPLSYQFDYWGQGTQVTVSS	high polyreactivity
QVQLVESGGGLVQAGGSLRLSCAASGSILYAYAMGWYRQAPGKERELLAAISSSGGGTYADSVKGRFTISRDNAKNTVYLQMNSLKPEDTAVYYCNADARGGIYFRGVKFDYWGQGTQVTVSS	high polyreactivity
QVQLVESGGGLVQAGGSLRLSCAASGSILYINAMGWYRQAPGKERELVAAITYSGGSTYYADSVKGRFTISRDNAKNTVYLQMNSLKPEDTAVYYCAADAVVAGRYDGHDYWGQGTQVTVSS	low polyreactivity
QVQLVESGGGLVQAGGSLRLSCAASGSILYIYAMGWYRQAPGKERELVASINSGGSTYYADSVKGRFTISRDNAKNTVYLHMYSLKPEDTGVYYCAKQGVDYWGQGTQVTVSS	low polyreactivity
QVQLVESGGGLVQAGGSLRLSCAASGSILYRYTMGWDRQAPGKERELVAAISFSGGRTYYADSVKGRFTISRDNAKNTVYLQMNSLKPEDTAVYYCNAGTSGKYGYWGQGTQVTVSS	high polyreactivity
QVQLVESGGGLVQAGGSLRLSCAASGSILYSNMGWYRQAPGKERELVAAITYSGGRTYYADSVKGRFTISRDNAKNTVYLQMNSLKPEDTAVYYCAARLATYGASTYYYWGQGTQVTVSS	high polyreactivity
QVQLVESGGGLVQAGGSLRLSCAASGSILYTYAMGWYRQAPGKERELVASISSNAGSTYYADSVKGRFTISRDNAKNTVYLQMNSLKPEDTAVYYCNKVYGGGTYDYWGQGTQVTVSS	low polyreactivity
QVQLVESGGGLVQAGGSLRLSCAASGSILYTYAMGWYRQSPGKERELVAAISRGGGSTYYADSVKGRFTISRDNAKNSVYLQMNSLKPEDSAVYYCAARKLTRGSGRDDEYWGQGTQVTVSS	high polyreactivity
QVQLVESGGGLVQAGGSLRLSCAASGSIQGYVMGWYRQAPGKERELVAAITNGGSTYYADSVKGRFTISRDNAKNTVYLQMISLKPEDTAVYYCAKRKFRWPYQGSYSYIPFGYWGQGTQVTVSS	high polyreactivity
QVQLVESGGGLVQAGGSLRLSCAASGSIRSYAMGWYRQAPGKERELVAAITRSGGSTYYADSVKGRFTLSRDNAKNSVYLQMNSLKPEDTAVYYCAARYTYSYPYYRYNYWGQGTQVTVSS	high polyreactivity
QVQLVESGGGLVQAGGSLRLSCAASGSISADDVMGWYRQAPGKERELVAAISVSAGTTYYADSVKGRFTISRDNAKNSVYLQMNSLKPEDSAVYYCAATDSYYWLYYYGYSPGNDYWGQGTQVNVSS	low polyreactivity
QVQLVESGGGLVQAGGSLRLSCAASGSISFINAIGWYRQATGKERELVAAISGSGGSTYYADSVKGRFTISRDNAKNTVFLQMNSLKPEDTAVYYCAVPLPSRIYGYWGQGTQVTVSS	low polyreactivity
QVQLVESGGGLVQAGGSLRLSCAASGSISFINAMGWYRQAPGKERELVAAITPGASTNYADSVKGRFTISRDNAKNTVYLQLNSLKPEDTAVYFCAAGWVSFEDWVLGSYYEYDYWGLGTQVTVSS	low polyreactivity
QVQLVESGGGLVQAGGSLRLSCAASGSISGVYAMGWYRQAPGKERELVAAISRSGGSTYYADSVKGRFTISRDNAKNTVYLQMNSLKPEDTAVYYCAAEYTYYSYGGNYDYWGQGTQVTVSS	low polyreactivity
QVQLVESGGGLVQAGGSLRLSCAASGSISKGYAMGWYRQAPGKERELVARISGDGGSTYYADSVKGRFTISRDNAKNTVYLQMNSLKPEDTAVYYCNTRQQFTLTRGVFLHNYWGQGTQVTVSS	high polyreactivity
QVQLVESGGGLVQAGGSLRLSCAASGSISKSYAMGWYRQAPGKERELVAVITSGGNTYYADSVKGRFTISRDNAKNTVYLQMNSLKPEDTAVYYCAADYHWYTEDDYWGQGTQVTVSS	high polyreactivity
QVQLVESGGGLVQAGGSLRLSCAASGSISNFYAMGWYRQAPGKEREFVAAISTRDGTKRFADSVKGRFTISRDNAKNTVYLQMNSLKPEDTAVYYCAAKGGGVWLYARIYSDYYWGQGTQVTVSS	low polyreactivity

Sequence	polyreactivity (PSR sort gate)
QVQLVESGGGLVQAGGSLRLSCAASGSISRLYAMRWYRQAPGKERELVARITSSGGRTYYADSVKGRFTISRDNAKNTVYLQMHSLKPEDTAVYYCAARGYVSVWRPYHWFVAGDYWGQGTQVTVSS	high polyreactivity
QVQLVESGGGLVQAGGSLRLSCAASGSISRQYALGWYRQAPGTERELVAAITVRGGSTYYADSVKGRFTISRDNAKNTVYLQMNSLKPEDTAVYYCAKYTRYSASYDYWGQGTQVTVSS	high polyreactivity
QVQLVESGGGLVQAGGSLRLSCAASGSISSAYAMGWYRQAPGKERELVAVITSGGSTNYADSVKGRFTISRDNAKNTVYLQMNSLKPEDTAVYYCNADTVAPLPYDYWGQGTQVTVSS	low polyreactivity
QVQLVESGGGLVQAGGSLRLSCAASGSISSYYAMGWYRQAPGQERELVAAITLNGGNTYYADSVKGRFTISRDNAKKTVYLQMNSLKPEDTAVYYCARRYRYGTKYYYWGQGTQVTVSS	high polyreactivity
QVQLVESGGGLVQAGGSLRLSCAASGSISVHYAMGWYRQAPGKERELVAAISRRGGSTYYADSVKGRFTISRDNAMNTVYLQMNSLKPEDTAVYYCNASYYSVIQQTWYDYWGQVTQVTVSS	high polyreactivity
QVQLVESGGGLVQAGGSLRLSCAASGSISVPYGMGWYRQAPGKERELVAAITGGSTNYADSVKGRFTISRDNAKNTVYLQMNSLKPEDTAVYYCAADVYWYYGAPELWYRYDYWGQGTQVTVSS	low polyreactivity
QVQLVESGGGLVQAGGSLRLSCAASGSISVWYVMGWYRQAPGKEREFVAAIDYGGGSTYADSVKGRFTISRDNAKNTVYLQMNSLKPEDTAVYYCNADNWVYLYDYWGQGTQVTVSS	low polyreactivity
QVQLVESGGGLVQAGGSLRLSCAASGSISWYYAMGWYRQAPGKERELVAAISDSGGDTYYADSVKGRFTISRDNAKNTVYLQMNSLKPEDTAVYYCATDTAYWLWVYALLEYWGQGTQVTVSS	low polyreactivity
QVQLVESGGGLVQAGGSLRLSCAASGSISYFNAMGWYRQAPGKERELVAAIDVSGDSTYYADSVKGRCTISRDNAKISLYLQMNSLKPEDTAVYYCAKDPTSWYRTFGHSYYWYDYWGQGTQVTVSS	low polyreactivity
QVQLVESGGGLVQAGGSLRLSCAASGSISYFYAMGWYRQAPGKERELVADINSGDDTYADSVKGRFTISRDNAKNTVYLQMNSLKPEDTAVYYCSVKYGGYESHYYRRPHYDYWGQGTQVTVSS	low polyreactivity
QVQLVESGGGLVQAGGSLRLSCAASGSISYINAMGWYRQAPGKERELVARIRSGDRTNYADSVKGRFTISRDNAKNTVYLQMNSLKPEDTAVYYCAARGLRTGGYWGQGTQVTVSS	high polyreactivity
QVQLVESGGGLVQAGGSLRLSCAASGSISYKYALGWYRQAPGKERELVAAISSSGGRTYYADSVKGRFTISRDNAKNTVYLQMISLKPEDTAVYYCNARTGTTWQGYEYDYWGQGTQVTVSS	low polyreactivity
QVQLVESGGGLVQAGGSLRLSCAASGSISYKYVMGWYRQAPGKEREFVASITRIGGSTYYADSVKGRFTISRDNAKNTVYLQMNSLKPEDTAVYYCARDYDYWSWPSAYDYWGQGTQVTVSS	low polyreactivity
QVQLVESGGGLVQAGGSLRLSCAASGSISYRYVMGWYRQAPGKERELVAAITTSGGSTYYADSVKGRFTISRDNAKNTVYLQMNSLKPEDTAVYDCAAKHNVYRYSRYYWGQGTQVTVSS	high polyreactivity
QVQLVESGGGLVQAGGSLRLSCAASGSISYTYAMGWYRQAPGKERELVAAISYSDGITYYADSVKGRFTISRDIAKNTVYLQMNSLKPEDTAVYYCAVEGVYPYYDQSEYDYWGQGTQVTVSS	high polyreactivity
QVQLVESGGGLVQAGGSLRLSCAASGSITPRNAMGWYRQAPGKERELVARISGSGGTTYYADSVKGRFTISRDNAKNTVYLQMKSLKPEDTAVYYCAASVRWNKYTLYDYWGQGTQVTVSS	low polyreactivity
QVQLVESGGGLVQAGGSLRLSCAASGSITSNVMGWYRQAPGKEMELVAAISRGGGSTYYADSVKGRFTISRDNAKNTVYLQMNSLKPEDTAVFYCAADVWGGLLPGYDYWGQGTQVTVSS	high polyreactivity
QVQLVESGGGLVQAGGSLRLSCAASGSIVAYNAMAWYRQAPGKEWELVAAINSGSLTYYADSVTGRFTISRDNAKYTVYLPMNSLKPEDTAVYYCAAEWERWYYRYDYWGQGTQVTVSS	high polyreactivity
QVQLVESGGGLVQAGGSLRLSCAASGSIVDYNAMGGYRQAPGKERELVAAISVNGGNTYYADSVKGRFTISRDYAKNTVYFQMNTLKPEDTAVYYCAADSYGGSKYDYWGQGTQVTLSS	low polyreactivity
QVQLVESGGGLVQAGGSLRLSCAASGSIVGSNAMGWYRQAPGKERELVAAITWSDGSPYYADSVKGRFTISRDNAKNTVYLQMNRLKPEDTAVYVCATDYGYSWYDYWGQGTQVTVSS	low polyreactivity
